One may read the stoichiometry N as the number of molecules, sites or subunits per partner or assembly. One may read the Kd as the concentration at which binding is half-saturated.

Four molecules from paper PMC10070186, “Unusual peptide-binding proteins guide pyrroloindoline alkaloid formation in crocagin biosynthesis” (Nature Chemistry, 2023) can be followed below.

What all share (details): both partners purified
Experiment [1] addresses T1, CgnC (Chondromyces crocatus CM c5).
T1 chain: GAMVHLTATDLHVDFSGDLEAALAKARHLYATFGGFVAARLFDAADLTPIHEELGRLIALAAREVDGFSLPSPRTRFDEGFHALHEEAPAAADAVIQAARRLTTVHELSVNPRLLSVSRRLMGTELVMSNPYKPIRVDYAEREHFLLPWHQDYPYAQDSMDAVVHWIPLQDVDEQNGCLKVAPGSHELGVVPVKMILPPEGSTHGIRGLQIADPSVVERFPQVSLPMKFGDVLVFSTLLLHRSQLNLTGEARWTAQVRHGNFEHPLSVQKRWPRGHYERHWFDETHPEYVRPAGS
Nature of the experiment: SEC; size-exclusion chromatography of the single proteins in solution.

The target of experiment [2] is T2, CgnE in the presence of CgnA (400 µM) (Chondromyces crocatus CM c5).
T2 construct: CgnE of Chondromyces crocatus CM c5, as m4; CgnA of Chondromyces crocatus CM c5, 21 amino acids, as m1; also called CgnA-CgnE; source: purified CgnE mixed with 400 µM CgnA
Nature of the experiment: MST; microscale thermophoresis in the presence of CgnA (400 µM). On the technique in general: Microscale thermophoresis detects binding through changes in fluorescence in a small temperature gradient.

Experiment [3] concerns the target T3, CgnB in the presence of CgnA (400 µM) (Chondromyces crocatus CM c5).
T3 construct: CgnB of Chondromyces crocatus CM c5, as m2; CgnA of Chondromyces crocatus CM c5, 21 amino acids, as m1; also called CgnA-CgnB; source: purified CgnB mixed with 400 µM CgnA
The description is as above.

Experiment [4] deals with T4, CgnB (Chondromyces crocatus CM c5).
T4 construct: CgnB of the crocagin BGC of Chondromyces crocatus CM c5; Construct details are in the Supplementary Methods; source: purified (HisTrap, His-SUMO removed with TEV protease, Superdex 200)
Nature of the experiment: MST; microscale thermophoresis of two components; which one was titrated is told only in Fig. 3c.

In experiment [5] the target is T5, CgnE (Chondromyces crocatus CM c5).
T5 construct: CgnE of the crocagin BGC of Chondromyces crocatus CM c5; Construct details are in the Supplementary Methods; source: purified (HisTrap, His-SUMO removed with TEV protease, Superdex 200)
The experiment is described as above.

The target in experiment [6] is T4, CgnB. The experiment is described as follows: MST; microscale thermophoresis in the presence of a constant, large excess of CgnE (250 µM).

B1: CgnC (enzyme)
chain: GAMVHLTATDLHVDFSGDLEAALAKARHLYATFGGFVAARLFDAADLTPIHEELGRLIALAAREVDGFSLPSPRTRFDEGFHALHEEAPAAADAVIQAARRLTTVHELSVNPRLLSVSRRLMGTELVMSNPYKPIRVDYAEREHFLLPWHQDYPYAQDSMDAVVHWIPLQDVDEQNGCLKVAPGSHELGVVPVKMILPPEGSTHGIRGLQIADPSVVERFPQVSLPMKFGDVLVFSTLLLHRSQLNLTGEARWTAQVRHGNFEHPLSVQKRWPRGHYERHWFDETHPEYVRPAGS
modifications: sequence from Supplementary Table 8 (the excerpt mark inside it is read as contiguous); N-terminal GA is a cloning remnant; dimer by size-exclusion chromatography / sequence from Supplementary Table …
For B1, the “stoichiometry N” value in experiment [1] turned out to be 2.

B2: CgnC (enzyme)
chain: GAMVHLTATDLHVDFSGDLEAALAKARHLYATFGGFVAARLFDAADLTPIHEELGRLIALAAREVDGFSLPSPRTRFDEGFHALHEEAPAAADAVIQAARRLTTVHELSVNPRLLSVSRRLMGTELVMSNPYKPIRVDYAEREHFLLPWHQDYPYAQDSMDAVVHWIPLQDVDEQNGCLKVAPGSHELGVVPVKMILPPEGSTHGIRGLQIADPSVVERFPQVSLPMKFGDVLVFSTLLLHRSQLNLTGEARWTAQVRHGNFEHPLSVQKRWPRGHYERHWFDETHPEYVRPAGS
modifications: sequence from Supplementary Table 8 (the excerpt mark inside it is read as contiguous); N-terminal GA is a cloning remnant; dimer by size-exclusion chromatography
As to B2, the “fold increase of the CgnC–CgnE affinity on addition of CgnA (400 µM)” value in experiment [2] stood at 2 fold. Also, the dissociation constant Kd in experiment [3] was ~0.1 µM; in experiment [4] it was ~6 µM; in experiment [5] it was ~1 µM.

B3: CgnC in the presence of a constant, large excess (250 µM) of CgnE (complex)
chain 1: GAMVHLTATDLHVDFSGDLEAALAKARHLYATFGGFVAARLFDAADLTPIHEELGRLIALAAREVDGFSLPSPRTRFDEGFHALHEEAPAAADAVIQAARRLTTVHELSVNPRLLSVSRRLMGTELVMSNPYKPIRVDYAEREHFLLPWHQDYPYAQDSMDAVVHWIPLQDVDEQNGCLKVAPGSHELGVVPVKMILPPEGSTHGIRGLQIADPSVVERFPQVSLPMKFGDVLVFSTLLLHRSQLNLTGEARWTAQVRHGNFEHPLSVQKRWPRGHYERHWFDETHPEYVRPAGS
chain 2: GMGGRRTIGIRSGEGAIMNASDFYALLRGRGMPVVVDDAEAAAVVSELGFRTVPFEAFDFDSPSEDPALVIVAQMGNVDALHGLWERSGTPLMHLALAKFDGGLSRLRAGLARVLAVDTDAALKRRAEAYEQLFSSASVEIASGEGVLRCHIGDEVEVGNCGDTLEQGFLYSVAEFLEASVVNLEGERSTFWVEGELPFDGFIHLSNSAALKERWGGMLDEFMRRSREGANLVRFADNVIDRLVVGGVDVTSALAGLSQGEERGMAATEFGLGCADAEAAEPFGVNSLLHKSAGGAYIGIGKGLRIPHIDFIARGATIRFIPAAEG
modifications: CgnC is a dimer and CgnE a monomer in solution when alone; stoichiometry of the complex is not given
In the case of B3, the Kd in experiment [6] was determined as 28 µM.

On to MKKTIKQISAGDRSKKGN [CgnA leader peptide (CgnA^LP)], for which the “fold reduction in affinity compared to CgnA” value in experiment [4] turned out to be 8 fold. In experiment [5], this molecule gave a Kd of 514 µM.
